Test results as given in US20090241202A1 (MICROMET, published 2009).

Target: T1, human EpCAM on Kato III gastric carcinoma cells (human, UniProt P16422 24-314)
T1 sequence (looked up): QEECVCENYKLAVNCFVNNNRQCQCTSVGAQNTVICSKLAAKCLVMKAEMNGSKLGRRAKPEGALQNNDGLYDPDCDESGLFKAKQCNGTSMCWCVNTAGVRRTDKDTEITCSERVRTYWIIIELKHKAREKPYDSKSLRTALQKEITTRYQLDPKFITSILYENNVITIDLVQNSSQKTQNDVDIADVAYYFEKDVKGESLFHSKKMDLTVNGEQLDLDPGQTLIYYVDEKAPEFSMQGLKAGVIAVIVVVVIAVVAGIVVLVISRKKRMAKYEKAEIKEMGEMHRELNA
Assay: cell-based or functional assay

B1: domain-grafted Anti-EpCAM (antibody, mouse IgG2a, kappa, V domains shown)
VH: EVQLLESGGGVVQPGRSLRLSCAASGFTFSSYGMHWVRQAPGKGLEWVAVISYDGSNKYYADSVKGRFTISRDNSKNTLYLQMNSLRAEDTAVYYCAKDMGWGSGWRPYYYYGMDVWGQGTTVTVSS
VL: ELQMTQSPSSLSASVGDRVTITCRTSQSISSYLNWYQQKPGQPPKLLIYWASTRESGVPDRFSGSGSGTDFTLTISSLQPEDSATYYCQQSYDIPYTFGQGTKLEIKR
EC50 of ADCC (lysis of Kato III target cells), unstimulated human PBMC as effector cells, E:T 20:1: 2.11 µg/mL
potency of ADCC against Anti-EpCAM, prestimulated murine NK cells as effector cells: 43.7 fold
